Measured values taken from patent US12102667B2, “Polypeptides and antibiotics against gram-negative bacterium comprising the same” (priority 2021, dated 2024).

Tests used:
A. baumannii = experiment: MIC, broth microdilution; format: cell-based, Acinetobacter baumannii
Procedure: (§1) The MIC of the LNT113 or antibiotic was determined using modification of the broth microdilution method in a 96-well, round bottom, microplate according to the previously described method (Heselpoth et al., 2019). Exponentially grown cells were diluted to a concentration of 10^6 CFU/ml in a CAA medium, and then cultured with recombinant LNT113 (1-64 μg/ml) or antibiotics at 35° C. for 20 hours. […] The MBC was defined as the lowest concentration of the antibacterial agent with no growth on a plate. All analyses were performed in duplicate.

K. pneumoniae = experiment: MIC, broth microdilution; format: cell-based, Klebsiella pneumoniae
Procedure: as §1

K. acrogenes = experiment: MIC, broth microdilution; format: cell-based, Klebsiella aerogenes
Procedure: as §1

Salmonella enteritidis = experiment: MIC, broth microdilution; format: cell-based
Procedure: as §1

Salmonella typhimurium = experiment: MIC, broth microdilution; format: cell-based
Procedure: as §1

[1] = system: various gram-negative bacterium; experiment: MIC, summary over Table 4 strains; format: cell-based; conditions: strains of Table 4
Procedure: as §1

E. coli = experiment: Antibacterial activity analysis (colony count after 2 hours in buffer); format: cell-based, Escherichia coli
Procedure: The antibacterial activity of the purified protein was tested for E. coli and various K. pneumoniae strains. The bacterium were grown to an exponential phase (OD600=0.5) and harvested by centrifugation at 12,000×g for 3 minutes. Then, the pellets were washed with reaction buffer solution (20 mM Tris-HCl, pH 7.5) and diluted to about 10^6 cells/ml in the buffer solution. Then, 100 μl bacterial suspension was mixed with the purified endolysin of 100 μl in the reaction buffer solution and incubated at 37° C. for 2 hours. Finally, the mixture was diluted with PBS and loaded on an LB plate. After culturing at 37° C. overnight, the bacterial colonies were counted. All the analysis was performed in triplicate.
The same reaction was performed for the selected subject bacterium in 20 mM HEPES-NaOH, 150 mM NaCl [pH 7.4], and the unique antibacterial activity of Tris and dependence of endolysin for turgor pressure were excluded (FIG. 10a and FIG. 10b). […] The bacterial cells grown geometrically were cultured with 2 μM endolysin in low tonicity buffers (20 mM Tris-HCl, pH 7.5 or 20 mM HEPES, pH 7.5) or high tonicity buffers (buffer solution comprising 150 mM NaCl) at 37° C. for 2 hours. The cells treated with storage buffer solution (20 mM Tris-HCl, pH 7.5, 150 mM NaCl buffer solution (pH 7.5)) were used as a negative control group. The dotted line represents the detection limit (1 Log CFU/ml).
For this, endolysin EC340 at a concentration of 2 μM and each test bacterium were added to reaction buffer (20 mM Tris-Cl, pH 7.5) so that the final concentration was to be 200 μl, and were left at 37° C. for 2 hours. After 2 hours, the number of colonies of Acinetobacter baumannii, Pseudomonas aeruginosa and Escherichia coli was confirmed, and the result was shown in FIG. 3.

E. coli ATCC 8739 = experiment: 1-N-phenylnaphthylamine (NPN) absorption analysis, outer membrane permeability; format: cell-based, Escherichia coli; conditions: 2 μM
Procedure: NPN absorption analysis was performed by the previously described method (Helander and Mattila-Sandholm, 2000). In other words, E. coli ATCC 8739 grown to an exponential phase (OD600=0.4) was washed and resuspended with buffer solution (5 mM HEPES, pH 7.2) to about 10^8 cells/ml. 40 μM NPN (Sigma-Aldrich) 50 μl was mixed with the purified endolysin or Cecropin A (AbClon, Korea) 50 μl so that the final concentration was 2 μM in a 96-well black plate. Outer membrane permeation agents, 1 mM EDTA (Duchefa) and 2 μM Polymyxin B (Sigma-Aldrich) were used as a positive control group. Then, cell suspension 100 μl was added to each well, and cultured at 37° C. for 5 minutes. Buffer alone, buffer+NPN, cell suspension+buffer and cell suspension+buffer+NPN were used as a negative control group. Fluorescence was measured at excitation (350 nm) and emission (420 nm) using a microplate reader (SpectraMax iD3, Molecular Devices, USA). An NPN absorption factor was calculated by dividing the fluorescence value after background removal (the value that the value without NPN subtracted from the fluorescence value of the cell mixture with the sample) with the fluorescence value of the cell suspension with buffer subtracted from the fluorescence value of buffer without NPN.

B1: LNT113: fusion polypeptide: Cecropin A, (GGGGS)3 linker, mutant endolysin mtEC340; recombinant form with C-terminal His tag (protein)
chain: MKWKLFKKIEKVGQNIRDGIIKAGPAVAVVGQATQIAKGGGGSGGGGSGGGGSVSRNISNNGIKFTAAFEGFRGTAYRATPNEKYLTIGYGSYGPHVEPGKTITPGQGLLLLNRDMAKAVAAVDAVAHHSLTQSQFDAVCDLVYNAGAGVIAAATGTGKALRSGDVATLRAKLALFINQNGKPLLGLRRRTAGRLALFDGKPWQEAEAIGRAVKG
modifications: synthetic_Met+Cecropin A+GGGGS3 linker+mtEC340
notes: fusion polypeptide: Cecropin A, (GGGGS)3 linker, mutant endolysin mtEC340; recombinant form with C-terminal His tag
A. baumannii; A. baumannii ATCC (first ATCC line, number not given)
  MIC: 8 µg/mL
A. baumannii; A. baumannii ATCC (second ATCC line, number not given)
  MIC: 16 µg/mL
A. baumannii; A. baumannii CCARM
  MIC: 8 µg/mL
A. baumannii; A. baumannii F4
  MIC: 4 µg/mL
A. baumannii; A. baumannii F65
  MIC: 8 µg/mL
A. baumannii; A. baumannii F66
  MIC: 8 µg/mL
A. baumannii; A. baumannii F67
  MIC: 8 µg/mL
K. pneumoniae; K. pneumoniae ATCC 700603
  MIC: 16 µg/mL
K. pneumoniae; K. pneumoniae CCARK 10143
  MIC: 4 µg/mL
K. pneumoniae; K. pneumoniae F144
  MIC: 16 µg/mL
K. pneumoniae; K. pneumoniae Fil8
  MIC: 16 µg/mL
K. pneumoniae; K. pneumoniae KCTO 2208
  MIC: 8 µg/mL
K. pneumoniae; K. pneumoniae P1O4
  MIC: 16 µg/mL
K. acrogenes; K. acrogenes CCARM 16006
  MIC: 16 µg/mL
K. acrogenes; K. acrogenes CCARM 16008
  MIC: 8 µg/mL
K. acrogenes; K. acrogenes CCARM 16010
  MIC: 8 µg/mL
Salmonella enteritidis
  MIC: > 64 µg/mL
Salmonella typhimurium
  MIC: > 64 µg/mL
[1]
  MIC range: 4 to 32 µg/mL
E. coli; E. coli ATCC8739, ATCC25922, CCARM1A746, CCARM1B684, 2 μM, 2 hours, Tris-HCl pH 7.5
  antibacterial activity (number of bacterium): more excellent antibacterial activity
E. coli; E. coli ATCC 8739, 2 μM, Tris or Hepes buffer with 150 mM NaCl
  effect of adding NaCl on antibacterial activity: negative effect of salt presence was significantly reduced
E. coli; E. coli ATCC 8739, 0.1-2.7 μM, 0.5 μM over time
  dose and time dependence of antibacterial activity: antibacterial activity according to dose and time
E. coli; E. coli ATCC8739, final concentration of 0.5 mM
  antibacterial activity compared to Cecropin A and/or mtEC340: enhanced antibacterial activity
E. coli; E. coli strains, 2 μM, 2 hours
  increase in activity compared to mtEC340: ≤ 4 log
E. coli; all tested E. coli strains, 2 μM
  viable bacterial cells after culturing for 2 hours: No viable bacterial cells were detected
E. coli; colistin-resistant E. coli FORC81, 2 μM, 2 hours
  amount of bacterial cells after treatment: below the detection limit
E. coli ATCC 8739
  increase of membrane penetration (NPN): 1.8 times
  membrane penetration relative to cecropin A alone (NPN): 1.3 fold
